According to US20210198650A1 (NIBEC, published 2021):

T1: cadherin6 (CDH6)-fc fusion protein (UniProt P55285 54-615, limits assumed)
T1 construct: Immobilised on a carboxymethyl dextran SPR chip; also called K-cadherin
T1 sequence (looked up): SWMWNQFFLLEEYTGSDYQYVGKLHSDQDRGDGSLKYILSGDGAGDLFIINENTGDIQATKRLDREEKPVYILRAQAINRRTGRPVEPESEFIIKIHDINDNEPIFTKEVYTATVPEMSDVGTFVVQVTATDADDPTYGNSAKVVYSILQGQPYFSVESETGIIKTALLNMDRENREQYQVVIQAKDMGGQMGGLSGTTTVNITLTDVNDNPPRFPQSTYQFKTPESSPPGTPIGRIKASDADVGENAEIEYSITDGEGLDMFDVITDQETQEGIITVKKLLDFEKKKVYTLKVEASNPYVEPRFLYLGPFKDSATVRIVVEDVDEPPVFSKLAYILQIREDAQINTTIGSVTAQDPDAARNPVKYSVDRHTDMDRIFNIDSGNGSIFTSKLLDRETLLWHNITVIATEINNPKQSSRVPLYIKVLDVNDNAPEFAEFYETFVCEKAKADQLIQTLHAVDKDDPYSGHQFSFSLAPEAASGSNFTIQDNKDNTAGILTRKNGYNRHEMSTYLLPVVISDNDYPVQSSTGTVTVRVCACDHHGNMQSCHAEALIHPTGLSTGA


Biological target: T1, cadherin6 (CDH6)-fc fusion protein
Experiment: SPR, CDH6-Fc immobilised on carboxymethyl dextran chip, peptide injected
Experimental: Comparison was made of the affinity of the peptides of the present invention for CDH6. The binding of GRS and GRS-derived peptides to cadherin6 (CDH6)-fc fusion protein was analyzed by surface plasmon resonance (SPR) using SR7500DC, Reichert Analytical Instrument (Depew NY). CDH6 was immobilized on a [CMDH chip] carboxymethyl dextran sensor chip via a free carboxyl group on the surface thereof, followed by injecting 0.1M 1-ethyl-3-(3-dimethylaminopropyl) carbodiimide hydrochloride and 0.05M N-hydroxysuccinimide at a flow speed of 5 μL/min to give an activated succinimide ester-modified surface. Various concentrations of GRS and GRS-derived peptides were injected at a flow speed of 30 μL/min into phosphate-based saline, after which a mobile-phase buffer was injected at the same flow speed to determine a dissociation rate. Data was analyzed using Software Scrubber 2.0 (Biological Software, Australia).

| Kd | Binder |
| --- | --- |
| 61.2 nM | MYTVFEHTFHVREGDEQRTFFSFPA (Linear 25-mer, 3.079 kDa) [GRS-DP-A linear (GRS 531-555 aa)] |
| 51.3 nM | CYTVFEHTFHVREGDEQRTFFSFPC (cyclic form: "monosulfide linkage" formed between the cysteine residues at the opposite termini (Cys 1 and Cys 25), Cyclised by spontaneous reaction at pH 8; 3.083 kDa; also called GRS-DP-A cyclic variant) [GRS-DP-A cyclic] |
| 83.9 nM | GRS-DP polypeptide (GRS 531-600 aa) (Linear truncated GRS fragment; also called GRS-DP peptide) peptide: MYTVFEHTFHVREGDEQRTFFSFPAVVAPFKCSVLPLSQNQEFMPFVKELSEALTRHGVSHKVDDSSGSI |
